# Experimental data as given in patent publication US20250188133A1, “CHIMERIC BACTERIOCINS AND METHOD FOR THE CONTROL OF PSEUDOMONAS” (priority 2022, published 2025).
# B1: S5-Pflu095: chimeric bacteriocin SEQ ID NO: 9: pyocin S5 first segment fused to P. fluorescens Pflu095 killing domain (protein)
# chain: MSNDNEVPGSMVIVAQGPDDQYAYEVPPIDSAAVAGNMFGDLIQREIYLQKNIYYPVRSIFEQGTKEKKEINKKVSDQVDGLLKQITQGKREATRQERVDVMSAVLHKMESDLEGYKKTFTKGPFIDYEKQSSLSIYEAWVKIWEKNSWEERKKYPFQQLVRDELERAVAYYKQDSLSEAVKVLRQELNKQKALKEKEDLSQLERDYRTRKANLEMKVQSELDQAGSALPPLVSPTPEQWLERATRLVTQAIADKKQLQTTNNTLIKNSPTPLEKQKAIYNGELLVDEIASLQARLVKLNAETTRRRTEKDKVRTEVVDIEAAIKFTSDFYAEAGVRFGDSASKLASDLADSAQGKKIRSADEAFKAFDKYKNELDKKFSVKDRAAAAKYIDSIDYEAIGKAATKFSKGLGYVGPVIDAKDSIIEFINSMESGDWKPFFLKLESIALGLAATAFVGIAFGFIATTPMGILAFAFIVAATGAAIDDNFAEKLNKFVSSL
# modifications: S5-Pflu095
# Assays:
# Assay type in all cases: cell-based
# P. aeruginosa strains = assay: agar disc-diffusion assay, panel of 25 strains
# Description: (§1) Overnight P. aeruginosa cultures grown in CAA medium were equalized till OD595=1.0 in CAA and diluted 100×. Sterile cotton swab was briefly submerged in diluted microbial suspension, removing the excess of liquid by pressing it against the container wall. The swab was used for evenly streaking bacteria on plates containing growth medium with CAA solid agar (1.5%). 6 mm diameter sterile Whatman discs were placed on soft-agar and 0.3-30 μg of chimeric pyocins were spotted to paper disks. The plates were incubated overnight at 37° C. and bacteriocin inhibition zones were observed.
# (§2) Next, all 25 P. aeruginosa strains were subjected to agar disc-diffusion assay by spotting different amounts of purified pyocin S5 (0.3 μg, 3 μg and 30 μg) on bacteria lawns. Six P. aeruginosa strains were resistant to pyocin S5. Four of these six strains were pyocin S5 and immunity protein-encoding strains—PA14, PAO1, […] and NCTC 13921. Two cystic fibrosis isolates, 12-35708 and 12-29165 were also completely resistant to pyocin S5, despite the absence of S5, or S5 immunity protein coding genes. […] Turbid inhibition zones were detected when 3 μg and 30 μg of S5 were spotted on the lawn of these strains (Table 1, FIG. 3).
# P. aeruginosa ATCC 19660 = assay: agar disc-diffusion assay; details: strain ATCC 19660; 0.3, 3 and 30 μg of protein spotted on discs on CAA agar lawn, overnight
# Description: as §1, §2
# P. aeruginosa PAO1 = assay: agar disc-diffusion assay; details: strain PAO1; 0.3, 3 and 30 μg of protein spotted on discs on CAA agar lawn, overnight
# Description: as §1, §2
# P. aeruginosa ATCC 29260 = assay: agar disc-diffusion assay; details: strain ATCC 29260; 0.3, 3 and 30 μg of protein spotted on discs on CAA agar lawn, overnight
# Description: as §1, §2
# P. aeruginosa NCTC 13437 = assay: agar disc-diffusion assay; details: strain NCTC 13437; 0.3, 3 and 30 μg of protein spotted on discs on CAA agar lawn, overnight
# Description: as §1, §2
# P. aeruginosa HP75 = assay: agar disc-diffusion assay; details: strain HP75; 0.3, 3 and 30 μg of protein spotted on discs on CAA agar lawn, overnight
# Description: as §1, §2
# P. aeruginosa UR78 = assay: agar disc-diffusion assay; details: strain UR78; 0.3, 3 and 30 μg of protein spotted on discs on CAA agar lawn, overnight
# Description: as §1, §2
# P. aeruginosa HP52 = assay: agar disc-diffusion assay; details: strain HP52; 0.3, 3 and 30 μg of protein spotted on discs on CAA agar lawn, overnight
# Description: as §1, §2
# P. aeruginosa HP6 = assay: agar disc-diffusion assay; details: strain HP6; 0.3, 3 and 30 μg of protein spotted on discs on CAA agar lawn, overnight
# Description: as §1, §2
# P. aeruginosa HP40 = assay: agar disc-diffusion assay; details: strain HP40; 0.3, 3 and 30 μg of protein spotted on discs on CAA agar lawn, overnight
# Description: as §1, §2
# P. aeruginosa NCTC 13921 = assay: agar disc-diffusion assay; details: strain NCTC 13921; 0.3, 3 and 30 μg of protein spotted on discs on CAA agar lawn, overnight
# Description: as §1, §2
# P. aeruginosa 13-18499 = assay: agar disc-diffusion assay; details: strain 13-18499; 0.3, 3 and 30 μg of protein spotted on discs on CAA agar lawn, overnight
# Description: as §1, §2
# [1] = system: P. aeruginosa Boston 41501 (ATCC 27853); assay: agar disc-diffusion assay; details: strain Boston; 0.3, 3 and 30 μg of protein spotted on discs on CAA agar lawn, overnight
# Description: as §1, §2
# P. aeruginosa EY76 = assay: agar disc-diffusion assay; details: strain EY76; 0.3, 3 and 30 μg of protein spotted on discs on CAA agar lawn, overnight
# Description: as §1, §2
# P. aeruginosa HP41 = assay: agar disc-diffusion assay; details: strain HP41; 0.3, 3 and 30 μg of protein spotted on discs on CAA agar lawn, overnight
# Description: as §1, §2
# P. aeruginosa Pr335 = assay: agar disc-diffusion assay; details: strain Pr335; 0.3, 3 and 30 μg of protein spotted on discs on CAA agar lawn, overnight
# Description: as §1, §2
# P. aeruginosa HP7 = assay: agar disc-diffusion assay; details: strain HP7; 0.3, 3 and 30 μg of protein spotted on discs on CAA agar lawn, overnight
# Description: as §1, §2
# P. aeruginosa PA14 = assay: agar disc-diffusion assay; details: strain PA14; 0.3, 3 and 30 μg of protein spotted on discs on CAA agar lawn, overnight
# Description: as §1, §2
# P. aeruginosa BR79 = assay: agar disc-diffusion assay; details: strain BR79; 0.3, 3 and 30 μg of protein spotted on discs on CAA agar lawn, overnight
# Description: as §1, §2
# P. aeruginosa Bu002 = assay: agar disc-diffusion assay; details: strain Bu002; 0.3, 3 and 30 μg of protein spotted on discs on CAA agar lawn, overnight
# Description: as §1, §2
# P. aeruginosa BL77 = assay: agar disc-diffusion assay; details: strain BL77; 0.3, 3 and 30 μg of protein spotted on discs on CAA agar lawn, overnight
# Description: as §1, §2
# P. aeruginosa A19 = assay: agar disc-diffusion assay; details: strain A19; 0.3, 3 and 30 μg of protein spotted on discs on CAA agar lawn, overnight
# Description: as §1, §2
# P. aeruginosa BI80 = assay: agar disc-diffusion assay; details: strain BI80; 0.3, 3 and 30 μg of protein spotted on discs on CAA agar lawn, overnight
# Description: as §1, §2
# P. aeruginosa HP1 = assay: agar disc-diffusion assay; details: strain HP1; 0.3, 3 and 30 μg of protein spotted on discs on CAA agar lawn, overnight
# Description: as §1, §2
molecule,measurement,setting,value
B1,inhibition on lawns of S5 producer strains HP6 and HP7,"P. aeruginosa strains; clinical isolates HP6 and HP7, S5 gave turbid zones with 3 μg and 30 μg",significantly larger and clearer than those formed by S5
same,activity spectrum / profile in agar disc diffusion assay,"P. aeruginosa strains; panel of 25 P. aeruginosa strains, in words",broadened activity spectrum in comparison to pyocin S5
same,inhibition zones on lawns of S5-producing strains,"P. aeruginosa strains; six pyocin S5 and immunity gene-positive strains (PA14, PAO1, HP6, HP7, ATCC 19660, NCTC 13921)",formed inhibition zones on the lawns of all six S5-producing strains
same,Activity in agar disc-diffusion assay,P. aeruginosa ATCC 19660,* (activity detected only with 30 μg of protein)
same,Activity in agar disc-diffusion assay,P. aeruginosa PAO1,*** (activity detected with 0.3 μg of protein)
same,Activity in agar disc-diffusion assay,P. aeruginosa ATCC 29260,*** (activity detected with 0.3 μg of protein)
same,Activity in agar disc-diffusion assay,P. aeruginosa NCTC 13437,* (activity detected only with 30 μg of protein)
same,Activity in agar disc-diffusion assay,P. aeruginosa HP75,* (activity detected only with 30 μg of protein)
same,Activity in agar disc-diffusion assay,P. aeruginosa UR78,*** (activity detected with 0.3 μg of protein)
same,Activity in agar disc-diffusion assay,P. aeruginosa HP52,** (activity detected with 3 μg of protein)
same,Activity in agar disc-diffusion assay,P. aeruginosa HP6,*** (activity detected with 0.3 μg of protein)
same,Activity in agar disc-diffusion assay,P. aeruginosa HP40,*** (activity detected with 0.3 μg of protein)
same,Activity in agar disc-diffusion assay,P. aeruginosa NCTC 13921,*** (activity detected with 0.3 μg of protein)
same,Activity in agar disc-diffusion assay,P. aeruginosa 13-18499,** (activity detected with 3 μg of protein)
same,Activity in agar disc-diffusion assay,[1],*** (activity detected with 0.3 μg of protein)
same,Activity in agar disc-diffusion assay,P. aeruginosa EY76,*** (activity detected with 0.3 μg of protein)
same,Activity in agar disc-diffusion assay,P. aeruginosa HP41,*** (activity detected with 0.3 μg of protein)
same,Activity in agar disc-diffusion assay,P. aeruginosa Pr335,*** (activity detected with 0.3 μg of protein)
same,Activity in agar disc-diffusion assay,P. aeruginosa HP7,*** (activity detected with 0.3 μg of protein)
same,Activity in agar disc-diffusion assay,P. aeruginosa PA14,** (activity detected with 3 μg of protein)
same,Activity in agar disc-diffusion assay,P. aeruginosa BR79,** (activity detected with 3 μg of protein)
same,Activity in agar disc-diffusion assay,P. aeruginosa Bu002,*** (activity detected with 0.3 μg of protein)
same,Activity in agar disc-diffusion assay,P. aeruginosa BL77,** (activity detected with 3 μg of protein)
same,Activity in agar disc-diffusion assay,P. aeruginosa A19,*** (activity detected with 0.3 μg of protein)
same,Activity in agar disc-diffusion assay,P. aeruginosa BI80,*** (activity detected with 0.3 μg of protein)
same,Activity in agar disc-diffusion assay,P. aeruginosa HP1,*** (activity detected with 0.3 μg of protein)
